B1: MOR12604 (antibody, V domains shown)
VH: QVQLVQSGAEVKKPGSSVKVSCKASGGTFSSYAISWVRQAPGQGLEWMGLIIPRYGKARYAQKFQGRVTITADESTSTAYMELSSLRSEDTAVYYCARNWPYYYMDFWGQGTLVTVSS
VL: DIVLTQSPATLSLSPGERATLSCRASQNIVFNLAWYQQKPGQAPRLLIYDASNRATGVPARFSGSGSGTDFTLTISSLEPEDFAVYYCQQKKSMPLTFGQGTKVEIKR
notes: Tested as IgG
B2: MOR12615 (antibody, human IgG1, lambda, V domains shown)
VH: QVQLVQSGAEVKKPGASVKVSCKASGYTFTSYDIHWVRQAPGQGLEWMGRIDPYSGNTNYAQKFQGRVTMTRDTSISTAYMELSRLRSEDTAVYYCARGSFYTRDSYFDVWGQGTLVTVSS
VL: DIALTQPASVSGSPGQSITISCTGTSSDVGTYNQVSWYQQHPGKAPKLMIYGVSKRPSGVSNRFSGSKSGNTASLTISGLQAEDEADYYCSSRDLIGHYVFGGGTKLTVLG
notes: Tested as IgG

Assays:
[1] = molecular target: T1, human HER3 endogenously expressed on human cancer cells (SK-Br-3, BT-474, MCF7) (human, UniProt P21860 20-1342); test: cell-based or functional assay
[2] = molecular target: T2, Hu HER3: CD33-[Human HER3, residues 20-640]-TAG (human, UniProt P21860 20-640); test: solution equilibrium titration (SET), IgG, ECL read-out
T2 construct: also called hu HER3-Tag; HER3-Tag; not shown: C-terminal TAG (e.g. FLAG TAG)

[3] = molecular target: T3, Cyno HER3: CD33-[Cyno HER3, residues 20-643]-TAG (cynomolgus monkey, UniProt G7PIG5 20-643); test: as above
T3 construct: also called cy HER3-Tag; not shown: C-terminal TAG (e.g. FLAG TAG)

[4] = molecular target: T4, Mu HER3: CD33-[Murine HER3, residues 20-643]-TAG (mouse, UniProt Q61526 20-643); test: as above
T4 construct: also called mu HER3-Tag; not shown: C-terminal TAG (e.g. FLAG TAG)

[5] = molecular target: T5, Rat HER3: CD33-[Rat HER3, residues 20-643]-TAG (rat, UniProt Q62799 20-643); test: as above
T5 construct: also called ra HER3-Tag; not shown: C-terminal TAG (e.g. FLAG TAG)

[6] = molecular target: T1, human HER3 endogenously expressed on …; test: cell-based or functional assay; remark: listed apart in the source
[7] = molecular target: T1, human HER3 endogenously expressed on …; test: cell-based or functional assay; remark: listed apart in the source
[8] = molecular target: T6, HER3 D1-2: CD33-[Human HER3, residues 20-329]-TAG (human, UniProt P21860 20-329); test: HER3 domain binding ELISA: recombinant protein coated on the plate, antibody titrated; the y axis reads 'Fluorescence Units'
T6 construct: also called D1-2-Tag; domains 1 and 2; not shown: C-terminal TAG (e.g. FLAG TAG)
Method: (§1) All wells were then washed with PBS/0.1% Tween-20, blocked with PBS/1% BSA/0.1% Tween-20 and washed with PBS/0.1% Tween-20. Anti-HER3 antibodies were added to the relevant wells up to a final concentration of 10 μg/mL and incubated at room temperature. Plates were washed with PBS/0.1% Tween-20 prior to the addition of the appropriate peroxidase linked detection antibody diluted 1/10000 in PBS/1% BSA/0.1% Tween-20. The detection antibodies used were goat anti-mouse (Pierce, 31432), rabbit anti-goat (Pierce, 31402) and goat anti-human (Pierce, 31412). Plates were incubated at room temperature before washing with PBS/0.1% Tween-20. 100 μl TMB (3,3′,5,5′ tetramethyl benzidine) substrate solution (BioFx) was added to all wells before stopping the reaction with 50 μl 12.5% H₂SO₄. […] Where appropriate, dose response curves were analyzed using Graphpad Prism.

[9] = molecular target: T7, HER3 D2: CD33-[Human HER3, residues 185-329]-TAG (human, UniProt P21860 185-329); test: as above
T7 construct: also called D2-Tag; domain 2; not shown: C-terminal TAG (e.g. FLAG TAG)
Method: as §1

Row | Binder | BT-474 pAkt % inhibition [1] | BT-474 pAkt IC50 [1] | MCF7 pAkt % inhibition [1] | MCF7 pAkt IC50 [1] | SK-Br-3 pAkt % inhibition [1] | SK-Br-3 pAkt IC50 [1] | Kd [2] | Kd [3] | Kd [4] | Kd [5] | BT474 pHER3 % inhibition [6] | BT474 pHER3 IC50 [6] | MCF7 pHER3 % inhibition [6] | MCF7 pHER3 IC50 [6] | SK-Br-3 pHER3 % inhibition [6] | SK-Br-3 pHER3 IC50 [6] | MCF7 proliferation % inhibition [7] | MCF7 proliferation IC50 [7] | SK-Br-3 proliferation % inhibition [7] | SK-Br-3 proliferation IC50 [7] | other results
1 | B1 | 70% | 225 pM | 74% | 235 pM | 85% | 17 pM | 1.1 nM | 2.2 nM | 1.9 nM | 5.2 nM | 62% | 142 pM | 79% | 57 pM | 71% | 29 pM | 39% | 0.073 nM | 42% | 0.015 nM | binding result [8]: no binding (tested: 10 µg/ml); binding result [9]: no binding (tested: 10 µg/ml)
2 | B2 | 63% | 466 pM | 78% | 815 pM | 86% | 101 pM | 0.102 nM | 0.257 nM | 0.336 nM | 0.31 nM | 56% | 421 pM | 75% | 447 pM | 71% | 179 pM | 42% | 2.54 nM | 40% | 0.121 nM | BT-474 proliferation % inhibition [7]: 35%; BT-474 proliferation IC50 [7]: 0.459 nM; binding result [8]: no binding (tested: 10 µg/ml); binding result [9]: no binding (tested: 10 µg/ml)

From patent publication US20130251703A1 (Novartis, published 2013)
